Reference: patent publication US20150232570A1 (ONCOMED PHARMACEUTICALS, published 2015)

T1: recombinant human NOTCH1 protein (human, UniProt P46531 1426-1731, limits assumed)
T1 construct: NOTCH1 proteins'
T1 sequence (looked up): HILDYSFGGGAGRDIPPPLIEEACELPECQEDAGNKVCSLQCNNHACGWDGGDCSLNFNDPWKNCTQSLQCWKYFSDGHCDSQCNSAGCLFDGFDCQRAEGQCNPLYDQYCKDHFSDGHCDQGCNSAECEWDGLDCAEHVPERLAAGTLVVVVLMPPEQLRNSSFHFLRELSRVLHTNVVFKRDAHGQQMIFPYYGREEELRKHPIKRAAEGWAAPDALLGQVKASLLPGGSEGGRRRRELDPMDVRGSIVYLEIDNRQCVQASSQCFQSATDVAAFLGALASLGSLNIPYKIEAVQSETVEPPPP

B1: murine monoclonal antibody 52M51 (antibody, mouse IgG1, V domains shown)
VH: QVQLQQSGAELMKPGASVKISCKAAGYTMRGYWIEWIKQRPGHGLEWIGQILPGTGRTNYNEKFKGKATFTADTSSNTANMQLSSLTSEDSAVYYCARFDGNYGYYAMDYWGQGSSVTVSS
VL: QAVVTQESALTTSPGETVTLTCRSSTGAVTTSNYANWVQEKPDHLFTGLIGGTNNRAPGVPARFSGSLIGDKAALTITGAQTEDEAIYFCALWYSNHWVFGGGTKLTVLG
notes: Mouse antibody purified from hybridoma supernatant; also called 52M51 anti-NOTCH1 antibody; ATCC PTA-9405
B2: humanized antibody 52M51-H4L3 (antibody, human IgG2, lambda, V domains shown)
VH: QVQLVQSGAEVKKPGASVKISCKVSGYTLRGYWIEWVRQAPGKGLEWIGQILPGTGRTNYNEKFKGRVTMTADTSTDTAYMELSSLRSEDTAVYYCARFDGNYGYYAMDYWGQGTTVTVSS
VL: SQAVVTQEPSLTVSPGGTVTLTCRSSTGAVTTSNYANWFQQKPGQAPRTLIGGTNNRAPGVPARFSGSLLGGKAALTLSGAQPEDEAEYYCALWYSNHWVFGGGTKLTVLG
notes: Human IgG2 heavy chain and lambda (IgLC1) light chain; also called OMP-52M51; ATCC PTA-9549
B3: humanized antibody 52M51-H4L4 (antibody, human IgG2, lambda, V domains shown)
VH: B2 VH
VL: SQTVVTQEPSFSVSPGGTVTLTCRSSTGAVTTSNYANWYQQTPGQAPRTLIGGTNNRAPGVPDRFSGSILGNKAALTITGAQADDESDYYCALWYSNHWVFGGGTKLTVLG
notes: Human IgG2 heavy chain and lambda (IgLC1) light chain

biological target: T1, recombinant human NOTCH1 protein; test: SPR (Biacore 2000), NOTCH1 protein amine-coupled to chip, IgG injected
Description: The affinities for human and mouse NOTCH11 were determined using a Biacore 2000 instrument. Briefly, recombinant human and mouse NOTCH1 proteins were immobilized on a CMS chip using standard amine based chemistry (NHS/EDC). Different antibody concentrations were injected over the protein surfaces and kinetic data were collected over time. The data was fit using the simultaneous global fit equation to yield dissociation constants (KD, nM) for each NOTCH1 protein (Table 2).

| Kd | Binder |
| --- | --- |
| 2.86 nM | B1 |
| 4.33 nM | B2 |
| 7.35 nM | B3 |
